Series [1] concerns the molecule itself. The series is described as follows: SEC-MALS; 400 ul purified protein at 1.4 mg/ml on Superdex 200 10/300 in GF buffer (20 mM Tris pH 7.0, 0.1 M NaCl, 2% glycerol, 0.2 mM TCEP); also the UMP-freed sample and the sample pre-incubated with PALA (Supplementary Fig. 4). Background: Size exclusion chromatography separates by hydrodynamic size, large species first.

Series [2] concerns the molecule itself. The experiment in a line: crystal structure; sitting-drop vapor diffusion at room temperature, PEG 3350 conditions; with UMP, apo, with PALA, with PALA and CP, with CP; molecular replacement with PDB 5G1O.

B1: Arabidopsis aspartate transcarbamoylase, construct spanning aa 82-390 (atATC) (enzyme, Arabidopsis thaliana, UniProt P49077 82-390, looked up)
chain: FELSDVIEGKQFDREMLSAIFDVAREMEKIEKSSSQSEILKGYLMATLFYEPSTRTRLSFESAMKRLGGEVLTTENAREFSSAAKGETLEDTIRTVEGYSDIIVMRHFESGAARKAAATANIPVINAGDGPGEHPTQALLDVYTIQSEIGKLDGISVALVGDLANGRTVRSLAYLLAKFKDVKIYFVSPEIVKMKDDIKDYLTSSGVEWEESSDLMEVASKCDVVYQTRIQRERFGERLDLYEAARGKYIVDKDLLGVMQKKAIIMHPLPRLDEITADVDADPRAAYFRQAKNGLFIRMALLKLLLVGW
notes: aspartate transcarbamoylase (ATC; pyrB; At3g20330), Arabidopsis thaliana, aa 82-390 of the 390 aa precursor, i.e. without the N-terminal chloroplast transit peptide; Homotrimer; As purified it carries UMP captured during expression; a UMP-freed form was also made; also called WT; recombinant ATC; source: E. coli BLR(DE3)-pLysS, purified (Ni-sepharose, size-exclusion chromatography); not shown: …
As usually defined, the stoichiometry N is a count of units in the complex or per binding partner. B1: the “stoichiometry N” value in series [1] is 3.

B2: atATC mutant F161A (enzyme, Arabidopsis thaliana, UniProt P49077 82-390, looked up)
chain: FELSDVIEGKQFDREMLSAIFDVAREMEKIEKSSSQSEILKGYLMATLFYEPSTRTRLSFESAMKRLGGEVLTTENAREASSAAKGETLEDTIRTVEGYSDIIVMRHFESGAARKAAATANIPVINAGDGPGEHPTQALLDVYTIQSEIGKLDGISVALVGDLANGRTVRSLAYLLAKFKDVKIYFVSPEIVKMKDDIKDYLTSSGVEWEESSDLMEVASKCDVVYQTRIQRERFGERLDLYEAARGKYIVDKDLLGVMQKKAIIMHPLPRLDEITADVDADPRAAYFRQAKNGLFIRMALLKLLLVGW
notes: aspartate transcarbamoylase (ATC; pyrB; At3g20330), Arabidopsis thaliana, aa 82-390 of the 390 aa precursor, with F161A in the CP-loop; Same construct as m1 with the point mutation F161A, made by site-directed mutagenesis; also called atATC-F161A; source: E. coli BLR(DE3)-pLysS, purified (Ni-sepharose, size-exclusion chromatography); not shown: 2.6 kDa fusion tag (from a modified pET28a plasmid)
Regarding B2, in series [2], the binding result is recorded as “binds”.
